The nature of this data set: protein stability index of a GFP-peptide fusion (yeast GPS) (PSI 1-4); higher = more stable; sorted into four equal gates, so the index is relative within each strain. Put shortly:
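Plasmids in a pooled yeast library fused tiled 17-residue yeast protein peptides downstream of GFP and also expressed Cherry. Mid-log cultures grown without leucine were sorted into four equal gates by GFP/Cherry fluorescence ratio. Each gate's plasmids were PCR-amplified and Illumina-sequenced, and reads were matched to strains by barcodes. The protein stability index is derived by multiplying each gate's read frequency by its gate number and summing the results.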

± gives the uncertainty stated by the source.

Turning to HDISRYVRAKFLDYTTD [PRP8], the protein stability index by setting is: (doa10∆) 2.23 ± 0.066; (pdr5∆) 1.99 ± 0.088; (san1∆) 1.83 ± 0.12; (ubr1∆) 2.54 ± 0.089.

As to GRLDRKIEFPLPSEDSR [RPT5], the protein stability index reads like this: (doa10∆) 3.36 ± 0.15; (pdr5∆) 2.91 ± 0.21; (san1∆) 2.71 ± 0.24; (ubr1∆) 3.56 ± 0.12.

Turning to VAALKAVGAHSDLLKVL [RPL4A], the protein stability index is, setting by setting: (doa10∆) 3.21 ± 0.093; (pdr5∆) 3.16 ± 0.11; (san1∆) 2.71 ± 0.1; (ubr1∆) 2.83 ± 0.059.

Consider LLHERKLLNDLALENGE [NUT1], for which the protein stability index (doa10∆) came out at 2.75 ± 0.06, the protein stability index (pdr5∆) was found to be 2.66 ± 0.073, the protein stability index (san1∆) amounted to 2.54 ± 0.083 and the protein stability index (ubr1∆) was determined as 2.84 ± 0.039.

As to AGCKIDNVDDIGEFNVS [YDL088C/ASM4], the protein stability index was found to be 3.25 ± 0.11 (doa10∆), 2.8 ± 0.097 (pdr5∆), 2.94 ± 0.096 (san1∆) and 3.06 ± 0.14 (ubr1∆).

Regarding PSAGPHKLRESLPLIVF [RPS4A], the protein stability index is 1.76 ± 0.048 (doa10∆), 1.75 ± 0.045 (pdr5∆), 1.69 ± 0.087 (san1∆) and 2.05 ± 0.046 (ubr1∆).

Regarding GEIVSINQINEAHPTKV [RPL20A], the protein stability index (doa10∆) is 3.17 ± 0.25, the protein stability index (pdr5∆) was determined as 2.98 ± 0.17, the protein stability index (san1∆) came out at 3.06 ± 0.06 and the protein stability index (ubr1∆) is 2.77 ± 0.092.

Turning to REASKDNVDFILSNVDL [RPB3], the protein stability index stood at 3.49 ± 0.1 (doa10∆), 3.3 ± 0.085 (pdr5∆), 3.38 ± 0.061 (san1∆) and 3.32 ± 0.073 (ubr1∆).

As to EKGNAKMIDFATLSKLK [SIR3], the protein stability index by setting is: (doa10∆) 3.15 ± 0.074; (pdr5∆) 3.08 ± 0.057; (san1∆) 3.33 ± 0.037; (ubr1∆) 3.24 ± 0.035.

In the case of SYFLQERYFDCCTKFFT [PCI8], the protein stability index by setting is: (doa10∆) 1.54 ± 0.069; (pdr5∆) 1.52 ± 0.059; (san1∆) 1.76 ± 0.08; (ubr1∆) 2.13 ± 0.044.

On to KLPLLNESLIPLINLAL [YML103C/NUP188], for which the protein stability index runs as follows: (doa10∆) 1.69 ± 0.061; (pdr5∆) 2.16 ± 0.068; (san1∆) 1.73 ± 0.079; (ubr1∆) 1.98 ± 0.054.

Regarding MLASQANGGSTIISPHK [DSN1], the protein stability index was 3.42 ± 0.17 (doa10∆), 3.43 ± 0.14 (pdr5∆), 3.45 ± 0.073 (san1∆) and 3.28 ± 0.15 (ubr1∆).

For DIETQLCSMLQEASQVT [MED11], the protein stability index came out at 2.73 ± 0.1 (doa10∆), 2.73 ± 0.11 (pdr5∆), 2.32 ± 0.11 (san1∆) and 2.44 ± 0.074 (ubr1∆).

On to RKCCNHPYLFEGAEPGP [ISW2], for which the protein stability index was 3.06 ± 0.064 (doa10∆), 3.11 ± 0.067 (pdr5∆), 3.11 ± 0.05 (san1∆) and 3.2 ± 0.052 (ubr1∆).

For EDNEMLEDLFSYRNGMA [YJR042W/NUP85], the protein stability index by setting is: (doa10∆) 2.02 ± 0.082; (pdr5∆) 1.89 ± 0.086; (san1∆) 2.65 ± 0.089; (ubr1∆) 1.95 ± 0.079.

For ASRSQLEKGEIELSDGS [YJL039C/NUP192], the protein stability index reads like this: (doa10∆) 3.06 ± 0.081; (pdr5∆) 3.02 ± 0.072; (san1∆) 2.8 ± 0.07; (ubr1∆) 3 ± 0.042.

FNVPVVSKQLGNGLVDE [YAR002W/NUP60]: the protein stability index was 3.66 ± 0.22 (pdr5∆), 3.26 ± 0.14 (san1∆) and 2.99 ± 0.14 (ubr1∆).

Regarding LSTRELAGKVGSIRVHK [RPC53], the protein stability index (doa10∆) stood at 1.61 ± 0.18 and the protein stability index (pdr5∆) turned out to be 1.26 ± 0.11.

Consider SVGNLEVVKSLYDRPLK [NAS6], for which the protein stability index worked out at 3.29 ± 0.19 (doa10∆), 2.89 ± 0.2 (pdr5∆), 3.12 ± 0.075 (san1∆) and 3.34 ± 0.1 (ubr1∆).

Consider PTRYVLIRNVGTNTYRL [POP1], for which the protein stability index by setting is: (doa10∆) 1.97 ± 0.29; (pdr5∆) 1.32 ± 0.23; (san1∆) 1.12 ± 0.28.

MYTRLCICSGMLFEMDG [SIN4]: the protein stability index (doa10∆) stood at 1.45 ± 0.038, the protein stability index (pdr5∆) stood at 1.41 ± 0.038, the protein stability index (san1∆) worked out at 1.48 ± 0.073 and the protein stability index (ubr1∆) came to 1.42 ± 0.029.

Turning to REMALCRELHNKHLTTL [SSN3], the protein stability index came to 1.62 ± 0.037 (doa10∆), 2.04 ± 0.041 (pdr5∆), 1.87 ± 0.056 (san1∆) and 1.8 ± 0.038 (ubr1∆).

On to RRTNTPIGRDGKLAKPR [RPB2], for which the protein stability index was determined as 3.08 ± 0.1 (doa10∆), 3.06 ± 0.078 (pdr5∆), 2.76 ± 0.084 (san1∆) and 2.96 ± 0.1 (ubr1∆).

As for ELEQLVEFNRKVVIPNL [RPN3], the protein stability index is, setting by setting: (doa10∆) 3.3 ± 0.14; (pdr5∆) 2.77 ± 0.28; (san1∆) 3.26 ± 0.071; (ubr1∆) 3.25 ± 0.11.

Turning to KVYYFQGGNNELGTAVG [RPL30], the protein stability index worked out at 2.67 ± 0.093 (doa10∆), 2.91 ± 0.086 (pdr5∆), 2.54 ± 0.054 (san1∆) and 2.89 ± 0.072 (ubr1∆).

The sequence IQNKKIQEQRVKDKQSK [RPN8] gave a protein stability index (doa10∆) of 1.97 ± 0.11, a protein stability index (pdr5∆) of 2.78 ± 0.13 and a protein stability index (ubr1∆) of 2.92 ± 0.13.
